Where “and” joins values, the source holds several entries; their conditions need not be identical. Equal values may be shown once.
Target: recombinant HIV-1 integrase (HIV-1)
Test: atomic force microscopy; 50 ng integrase incubated with 10 ng target DNA xkyk in binding buffer with MnCl2 at 30°C, dialysed against PBS 48 h at 4°C, digested with ScaI, adsorbed on mica with spermidine, tapping mode in air; size and volume of integrase bound on DNA (n = 123)

recombinant HIV-1 integrase (enzyme)
stoichiometry N: 2 and 4

Source: article PMC3544922
